Assay results from publication PMC10000358, “Development of an inhibiting antibody against equine interleukin 5 to treat insect bite hypersensitivity of horses” (Scientific Reports, 2023).
Numbering of substitutions follows the chain as printed. Names and notes keep the numbering of the source. Values joined by “and” are separate entries in the source; they are usually repeats but may differ in a detail not shown here. Identical values can stand only once.

T1: equine interleukin 5 with 8 × His-tag (equine (horse), UniProt O02699 20-134)
T1 chain: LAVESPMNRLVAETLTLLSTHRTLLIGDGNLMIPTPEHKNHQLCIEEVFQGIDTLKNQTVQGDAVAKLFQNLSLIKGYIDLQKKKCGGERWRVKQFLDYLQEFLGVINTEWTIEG

B1: NOL225-2-F10 (antibody, V domains shown)
VH: QVQLQQSGGGVVQPGRSLRLSCAASGFTFSSYGMHWVRQAPGKGLEWVAVIWYDGSNKYYADSVKGRFTISRDNSKNTLYLQINSLRAEDTAVYYCARGLYGRSYFDYWGQGTLVTVSS
VL: SYELTQPPSVSVAPGQTAKIVCEGDNIGSKSVHWYQQRPGQAPVLVVYDDTDRPSGIPDRFSGSNSGNTATLTISRVEVGDEADYYCQVWDSGDGHPRVFGGGTKLTVL
B2: NOL226-2-D1 (antibody, V domains shown)
VH: EVQLVETGGGVVRPGRSLRLSCAASGFTFSSYGMHWVRQAPGKGLEWVAVISYDGSNKYYADSVKGRFTISRDNSKNTLYLQMNSLRAEDTAVYYCVKGFKIQLWFAAFDIWGQGTMVTVSS
VL: QSVLTQPPSVSVAPGQTARITCGGNNIGSKSVHWYQQKPGQAPVLVVYDDSDRPSGIPERFSGSNSGNTATLTIGRVESGDEADYYCQVWDSSSDPVVFGGGTKLTVL
B3: NOL226-2-G9 (antibody, V domains shown)
VH: B2 VH with V5E, R13Q, S30G, V97A
VL: B2 VL with V10I, Q36H, G75S, S79A
B4: NOL229-C3 (antibody, V domains shown)
VH: B2 VH with R13Q, S30R, Y53N, V97A, T116A
VL: B2 VL with S66T, G75S, S79A
B5: NOL225-2-C1 (eqIgG6 format) (antibody, V domains shown)
VH: B1 VH with S56R, I83M, Y101F
VL: B1 VL with V10M, K19R, V21A, Y48F
notes: source: Expi293F suspension cells, purified (HiTrap Fibro PrismA or Protein G HP)
B6: NOL231-2-E2 (eqIgG6 format) (antibody, V domains shown)
VH: B1 VH with G8E, V48L, I83M, Y101F
VL: B1 VL with V21T
notes: as for B5
B7: NOL231-1-A3 (eqIgG6 format) (antibody, V domains shown)
VH: B1 VH with I83M
VL: B1 VL with V21A, H96N
notes: as the VH of m3 (NOL48-1-D5); as the VL of m3 (NOL48-1-D5) with H96N in the CDR3 of the VL; source: Expi293F suspension cells, purified (HiTrap Fibro PrismA or Protein G HP)
B8: NOL226-2-D10 (eqIgG6 format) (antibody, V domains shown)
VH: B2 VH with R13Q, F100L
VL: B2 VL with G75S, S79A
notes: as the VH of m4 (NOL162-1-F5) with A97V and F100L, both in the CDR3 of the VH; as the VL of m4 (NOL162-1-F5); also called final antibody; final candidate; source: Expi293F suspension cells, purified (HiTrap Fibro PrismA or Protein G HP)
B9: NOL162-1-F5 (eqIgG6 format) (antibody, V domains shown)
VH: B2 VH with R13Q, V97A
VL: B2 VL with G75S, S79A
notes: human VH of NOL162-1-F5 (selected from HAL9/10); human VL of NOL162-1-F5; Chimeric IgG: human VH and VL, all constant domains equine (IgG6); Selected by panning in MTP; also called parental antibody; parAB; source: Expi293F suspension cells, purified (HiTrap Fibro PrismA or Protein G HP)
B10: NOL48-1-D5 (eqIgG6 format) (antibody, V domains shown)
VH: B1 VH with I83M
VL: B1 VL with V21A
notes: human VH of NOL48-1-D5 (selected from HAL9/10); human VL of NOL48-1-D5; Chimeric IgG: human VH and VL, all constant domains equine (IgG6); Selected by panning in solution; also called parental antibody; parAB; source: Expi293F suspension cells, purified (HiTrap Fibro PrismA or Protein G HP)

biological target: T2, equine interleukin 5 with 8 × His-tag (Equus caballus, UniProt O02699); assay: not given; conditions: not given

binding result | Binder
binds | B1
binds | B2
binds | B3
binds | B4

Biological target: T1, equine interleukin 5 with 8 × His-tag
Assay: ELISA
Conditions: not given

EC50 | Binder
0.4 nM | B5
0.5 nM | B6
0.5 nM | B7

biological target: T3, BSA (Bos taurus, UniProt P02769); assay: ELISA; unspecificity ELISA: antigens immobilised at 10 ug/mL in PBS, blocked with 2% MPBST; 100 nM eqIgG6 antibody, 1 h at RT; detected with anti horse IgG (Fc)-HRP; conditions: both partners purified
T3 construct: BSA (serum albumin), negative control coated on the plate
T3 sequence (P02769 25-607): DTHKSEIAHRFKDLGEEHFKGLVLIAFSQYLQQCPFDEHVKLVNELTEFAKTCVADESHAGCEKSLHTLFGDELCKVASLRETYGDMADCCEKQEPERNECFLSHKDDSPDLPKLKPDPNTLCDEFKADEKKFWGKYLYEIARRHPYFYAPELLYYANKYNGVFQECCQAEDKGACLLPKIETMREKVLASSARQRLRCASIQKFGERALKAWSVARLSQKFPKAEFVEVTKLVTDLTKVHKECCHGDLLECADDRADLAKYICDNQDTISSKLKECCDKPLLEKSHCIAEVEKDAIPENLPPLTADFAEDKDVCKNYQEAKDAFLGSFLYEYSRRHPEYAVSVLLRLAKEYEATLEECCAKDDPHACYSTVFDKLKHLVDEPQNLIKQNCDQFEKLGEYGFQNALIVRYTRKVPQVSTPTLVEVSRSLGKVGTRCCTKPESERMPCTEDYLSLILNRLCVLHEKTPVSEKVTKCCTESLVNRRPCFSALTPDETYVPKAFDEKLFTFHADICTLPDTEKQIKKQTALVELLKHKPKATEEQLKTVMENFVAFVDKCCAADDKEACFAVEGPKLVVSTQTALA

binding result | Binder
no binding (tested: 100 nM) | B8
no binding (tested: 100 nM) | B9

biological target: T2, equine interleukin 5 with 8 × His-tag; assay: ELISA; titration ELISA: 100 ng eqIL-5/well (or 1% BSA as negative control) immobilised, blocked with 2% MPBST; eqIgG6 antibody titrated from 316 nM, 1 h at RT; detected with anti horse IgG (Fc)-HRP; EC50 by Logistic5 fit; triplicates; conditions: both partners purified

EC50 | Binder
1 nM | B10
8.8 nM | B8
9 nM | B9

biological target: T3, BSA; assay: as above; conditions: both partners purified

binding result | Binder
no binding (tested: 316 nM) | B10
no binding (tested: 316 nM) | B5
no binding (tested: 316 nM) | B6
no binding (tested: 316 nM) | B7

biological target: T2, equine interleukin 5 with 8 × His-tag; assay: flow cytometry on cells; competitive cellular inhibition assay: no pre-incubation; 1000 nM-0.1 nM antibody first put on 5 x 10^5 receptor expressing cells, then 5 nM eqIL-5 (related to dimer) added for 45 min on ice; detection as before; conditions: both partners purified

IC50 | Binder
9 nM | B8
15 nM | B9

biological target: T2, equine interleukin 5 with 8 × His-tag; assay: flow cytometry on cells; cellular in vitro inhibition assay: antibody (screening 1000 nM; titration 1000 nM-0.32 nM) pre-incubated with 5 nM eqIL-5 (related to dimer), then added to 5 x 10^5 eqIL-5 receptor expressing Expi293F cells for 45 min on ice, FACS buffer (2% FCS, 5 mM EDTA in PBS); bound eqIL-5 detected by Penta-His antibody and anti mouse Fc-APC; IC50 by Logistic5 fit; single measurements; conditions: both partners purified

IC50 | Binder
6 nM and 12 nM | B10
4 nM | B5
3 nM | B6
4 nM | B7
4 nM | B8
7 nM and 12 nM | B9
